# In the supplement of paper PMC10724198:
# ± gives the standard deviation of the averaged measurements.
# Test system: Saccharomyces cerevisiae
# Test: protein stability index of tFT-peptide fusion (C-terminal peptide) (PSI (0-1 scale)); higher = more stable (slower turnover)
# Conditions: genetic background: wild type; temperature: 30 C
# 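Also: PSI is a weighted mean of sequencing reads over stability bins, variants kept only with over 10 reads, mCherry proximal and sfGFP distal, peptide attached via GGGS linker.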
row,Sequence,protein stability index
1,PYKASGLAGCAV,0.697 ± 0.008
2,PYLLDTPPPSTP,0.769 ± 0.043
3,PYLLSLLSPLPL,0.7005 ± 0.007
4,PYPPRPATPRPP,0.682 ± 0.018
5,QADHGSSPHSIG,0.717 ± 0.051
6,QCLSIDARNGVT,0.668 ± 0.095
7,QEDNAIAVGWSA,0.673 ± 0.008
8,QEEKLSKNSKKK,0.691 ± 0.036
9,QEHLSFVATARY,0.73 ± 0.1
10,QEKWSKVSKKKE,0.749 ± 0.19
11,QERKKKRENKKE,0.63688 ± 5.9e-05
12,QFTSPHLNPFRT,0.6783 ± 0.0058
13,QFWRSSSSRLAS,0.687 ± 0.045
14,QGAINSKRRPDQ,0.603 ± 0.045
15,QGLPLCVVQALQ,0.605 ± 0.042
16,QGSSLLPLYFPD,0.622 ± 0.013
17,QGVGSHIPCGTP,0.64 ± 0.023
18,QGVLKYPRPSPP,0.7071 ± 0.0016
19,QHHDPYPHQRSP,0.686 ± 0.023
20,QIEEDINLVTCN,0.739 ± 0.049
21,QKCNPGKRVDRT,0.692 ± 0.0091
22,QKENTKEKKKRE,0.686 ± 0.015
23,QKFKHQNKLQSE,0.6803 ± 0.0061
24,QKGSGITPSPAR,0.757 ± 0.12
25,QKHTTKKTKTRY,0.728 ± 0.037

row,Sequence,protein stability index
1,QKKKKEKQKKKG,0.692 ± 0.023
2,QKKNKNKIRTPN,0.688 ± 0.012
3,QKKNNKTTKKTK,0.686 ± 0.012
4,QKQKKKINIEKR,0.731 ± 0.017
5,QKTKEKKKKKRE,0.708 ± 0.064
6,QLFTAKHSDPLD,0.7444 ± 0.0023
7,QLGALIAHSTTF,0.665 ± 0.13
8,QLGVVDVIIGAS,0.679 ± 0.052
9,QLMAYFDITYSS,0.723 ± 0.045
10,QLPSDENSPANR,0.615 ± 0.019
11,QLRYVGRSISRM,0.659 ± 0.037
12,QMRRRGARRAKP,0.743 ± 0.027
13,QNLRLRKNIDIK,0.76 ± 0.014
14,QNQTYQKQKSKE,0.71 ± 0.068
15,QNWREDNKGKDI,0.697 ± 0.032
16,QPDQSKPSTPEP,0.674 ± 0.051
17,QPLDCPPYHPHH,0.687 ± 0.016
18,QPPSPHTLRADI,0.787 ± 0.0037
19,QQATLYCTTVRK,0.682 ± 0.014
20,QRCAVRSSFYVL,0.641 ± 0.059
21,QRCWSRKGVNSL,0.67 ± 0.025
22,QRGLERVVVGGI,0.667 ± 0.016
23,QRKKKDRTMKKR,0.631 ± 0.026
24,QRKNQKKKHNRR,0.7159 ± 0.0027
25,QRQPPEACPKNS,0.747 ± 0.01

row,Sequence,protein stability index
1,QRRRQEKRKKQD,0.654 ± 0.077
2,QRSGNEDWKDLL,0.888 ± 0.024
3,QSAAPISTPSLC,0.694 ± 0.012
4,QSCQSKGSEVGE,0.696 ± 0.054
5,QSGTRRRKRCSD,0.693 ± 0.042
6,QSILGLVERVIK,0.643 ± 0.032
7,QSPSHSYLCHLF,0.583 ± 0.097
8,QSRSEVFPCHAS,0.848 ± 0.15
9,QSSWGGRWVRGG,0.669 ± 0.011
10,QTAAGLKPMSNR,0.777 ± 0.17
11,QTIRNLEVPLTG,0.751 ± 0.017
12,QTKEGSDRHRSS,0.748 ± 0.015
13,QTPLPPSAISPP,0.7124 ± 0.005
14,QTPPPLPSPHPH,0.635 ± 0.09
15,QTPPPRLPPRPP,0.669 ± 0.062
16,QTQSNTRIERKK,0.668 ± 0.057
17,QTTKPRDPPLHP,0.787 ± 0.13
18,QVDLVCKKVVGV,0.655 ± 0.029
19,QVFFDTSDHRMG,0.72 ± 0.029
20,QVHNTEICVPLV,0.679 ± 0.013
21,QVISDEHLCRFV,0.651 ± 0.083
22,QVKKKKQNDAKN,0.646 ± 0.074
23,QVRCCQEYSSEE,0.69 ± 0.026
24,QVWMRDCARKFQ,0.731 ± 0.012
25,QYVYIPGLSNLC,0.632 ± 0.019

row,Sequence,protein stability index
1,QYWIYTGLKSLS,0.598 ± 0.039
2,RAAQVFPHVLPR,0.6726 ± 0.0022
3,RACLVWKSLGWV,0.605 ± 0.084
4,RACRISSIRVGI,0.651 ± 0.014
5,RAFVSDLPHPKS,0.704 ± 0.098
6,RAKGILPESEQI,0.72 ± 0.035
7,RAKRADPSGPPR,0.724 ± 0.051
8,RALGDGRLGQDT,0.682 ± 0.014
9,RALITRAPSKER,0.795 ± 0.084
10,RALSPFPSILPS,0.719 ± 0.068
11,RAMGDRSIRLDV,0.679 ± 0.02
12,RAPPPPHPSSPP,0.744 ± 0.079
13,RAPVRPSEYTRP,0.681 ± 0.028
14,RARASLIPNAGT,0.705 ± 0.037
15,RARTKGRMRTCR,0.749 ± 0.15
16,RASQRGVRGGGG,0.666 ± 0.02
17,RAWELPRLRGRE,0.6682 ± 0.0039
18,RCAGWSVDVGEG,0.623 ± 0.17
19,RCCVPCWFMTLV,0.555 ± 0.021
20,RCFQPLRQRMGR,0.734 ± 0.064
21,RCGGIWWIVSSV,0.669 ± 0.081
22,RCHAFGEWLRGW,0.733 ± 0.003
23,RCLGFSACPATY,0.809 ± 0.14
24,RCLRGGMLGFGR,0.627 ± 0.052
25,RCPRRASSPTLS,0.843 ± 0.17

row,Sequence,protein stability index
1,RCSPPVFDTGES,0.652 ± 0.017
2,RCTLSSFIYFCP,0.601 ± 0.039
3,RCTPPPPTPPAT,0.6832 ± 0.0027
4,RCVGVLYVAGLE,0.6533 ± 0.0012
5,RCVGWRRTPESS,0.739 ± 0.064
6,RDGLVPFCVVII,0.615 ± 0.048
7,RDKKMKHIKDKR,0.79 ± 0.11
8,RDLGPSAISMTV,0.628 ± 0.043
9,RDPPLLQPTTSS,0.648 ± 0.018
10,RDQMDNILQRFR,0.656 ± 0.077
11,RDSMVFEVRYSQ,0.698 ± 0.1
12,REEKRREEEGKK,0.701 ± 0.028
13,REGGDPPDGGTG,0.734 ± 0.039
14,REKEIIIIKKEK,0.683 ± 0.037
15,RETSGEVESDVT,0.678 ± 0.014
16,REVGSTILAVVH,0.645 ± 0.031
17,RFAPCSPPADPS,0.68 ± 0.019
18,RFCRPVCRFNLG,0.647 ± 0.063
19,RFLCPSSFIELL,0.794 ± 0.12
20,RFLESNGRPFHK,0.673 ± 0.0088
21,RFRDSGRWLSAE,0.765 ± 0.063
22,RFRTVFFPLPRC,0.716 ± 0.062
23,RFVCSRLGGSVP,0.64 ± 0.0029
24,RGARRHSPTARW,0.717 ± 0.037
25,RGAVEAGGWRIG,0.682 ± 0.0087

row,Sequence,protein stability index
1,RGFGPTPRSSGG,0.707 ± 0.046
2,RGFPALLPAPAC,0.753 ± 0.12
3,RGGAGGRQGCGG,0.746 ± 0.043
4,RGGARGRQGCGG,0.765 ± 0.034
5,RGGGAGAVQYRS,0.642 ± 0.014
6,RGGGGGGIGFPR,0.681 ± 0.066
7,RGGGGGRVAREC,0.668 ± 0.011
8,RGGGQAKAPAGD,0.6566 ± 0.0011
9,RGGWGGYRGGVP,0.757 ± 0.021
10,RGGWWGYRGGVP,0.718 ± 0.057
11,RGIFLGVCALDY,0.696 ± 0.0085
12,RGKGGKKRRKRD,0.648 ± 0.07
13,RGKKKAKIYREH,0.766 ± 0.13
14,RGLDNSGVVAGG,0.715 ± 0.025
15,RGLGGWAECGRW,0.76 ± 0.05
16,RGLGLVGLGGGG,0.727 ± 0.012
17,RGLRIRFKKIDK,0.704 ± 0.078
18,RGNSPPPSSPPL,0.687 ± 0.038
19,RGPGRTPLGRQL,0.68915 ± 0.00044
20,RGRRFMRGEVGG,0.6528 ± 0.0055
21,RGRWGVYISSWV,0.626 ± 0.048
